# According to patent US20170173114A1, “METHODS AND COMPOSITIONS FOR INDUCTION OF UCP1 EXPRESSION” (Joslin Diabetes Center, Inc., priority 2014, published 2017):
# “Also recorded” adds a separate entry of the source.
# B1: FGF6: fibroblast growth factor 6; recombinant human FGF from R&D Systems, or mouse FGF6 cDNA overexpressed by lentiviral vector (protein)
# chain: KRQRRLYCNVGIGFHLQVLPDGRISGTHEENPYSLLEISTVERGVVSLFGVRSALFVAMNSKGRLYATPSFQEECKFRETLLPNNYNAYESDLYQGTYIALSKYGRVKRGSKVSPIMTVTHFLPRI
# What was measured:
# [1] = test system: UCP1 and PTGS2; assay: UCP1 and PTGS2 mRNA in WT-1 cells differentiated with BMP7; assay type: cell-based, murine; conditions: 200 mg/mL FGF6 for 32 hours after 8 days BMP7; vs vehicle
# Experimental: WT-1 preadipocyte cells were exposed to 3.3 nM BMP7 in growth media (DMEM-high glucose, 10% FBS, supplemented with 20 nM insulin and 1 nM triiodothyronine (T3)) for 8 days in order to induce differentiation of the adipocytes (Tseng Y. H. et al., (2008) Nature 454(7207):1000-1004). Following day 8 of treatment, the cells were exposed to […] of FGF6 protein, or vehicle control, in growth media for 32 hours. Cells were then collected, and UCP1 and PTGS2 mRNA expression levels were determined according to the quantitative RT-PCR assay described above.
# [2] = test system: UCP1; assay: UCP1 mRNA expression (Q-RT-PCR) in WT-1 brown preadipocytes; assay type: cell-based, murine
# Experimental: Total RNA was isolated with QIAzol lysis reagent (Qiagen, Valencia, Calif.) and purified by RNeasy Mini columns (Qiagen) following the manufacture's instructions. cDNA was prepared from total RNA using the Advantage RT-PCR kit (BD Biosciences, Palo Alto, Calif.) according to manufacturer's instructions. Diluted cDNA was used in a PCR reaction with SYBR Green Master Mix (Applied Biosystems, Foster City, Calif.) and primers specifically designed for detection of the gene of interest. PCR reactions were run in duplicate for each sample and quantitated in the ABI Sequence Detection System (Applied Biosystems). Data were expressed as arbitrary units after normalization to levels of expression of internal controls for each sample. Sequences of primers for specific genes are each obtained from the published literature or designed using publically available gene sequence databases. Unless otherwise indicated, gene expression data described in the examples below was obtained using QPCR.
# The effect of FGF6 on differentiation of WT-1 murine brown preadipocytes was also examined. WT-1 cells can be induced to undergo brown adipocyte differentiation, characterized by lipid accumulation and expression of adipogenic and brown fat markers, as described above (Klein et al. (1999) J Biol Chem 274:34795; Tseng et al. (2005) Nat Cell Biol 7:601). WT-1 cells were treated with FGF6 in growth media (DMEM+10% FBS), a vehicle control (“control” or “C” referred to in FIGS. 3A-D), or induction media (“induction” or “I” referred to in FIGS. 3A-D) as described above for seven days. Following the treatment, cells were examined for the color of the culture media in combination with oil Red O staining, expression of adipogenic markers, expression of brown fat markers, immunofluorescent staining of cells with UCP1 and DPAI, and Western blot analysis to determine the presence of UCP1 and β-tubulin. The results are described in FIGS. 3A to 3D.
# UCP1 mRNA expression in brown adipocyte cells was determined at FGF6 concentrations ranging from 0 to 300 ng/ml in the absence of induction cocktail.
# In order to determine the length of time necessary to induce UCP1 expression upon exposure to of cells to FGF6, an experiment was performed whereby FGF6 was administered to brown preadipocytes at a concentration of 200 ng/ml and UCP1 expression was determined. FGF21 and a control were also used in the time course experiment. FGF21, a member of the endocrine FGF ligands that has been implicated in the browning of white fat (Fisher F. M. et al., Genes Dev. 26:271-281, 2012). […] FGF6 could acutely induce a significant increase of UCP1 expression as early as 4 hours after a 200 ng/ml dose, as described in FIG. 4B. At 24 hours, the fold-induction of UCP1 mRNA by FGF6 reached 700-fold higher than the untreated cells, as described in FIG. 4B.
# To assess FGF6's role in the regulation of mitochondrial activity, FGF6 was stably expressed in WT-1 brown preadipocytes and 3T3-F442A white preadipocytes. Stable cells were generated by viral infection followed by drug selection.
# FGF2, FGF6 and FGF9 were used at a dosage of 50 ng/mL, 100 ng/mL, 200 ng/mL or 300 ng/mL. FGF21 was used at the dosage of 50 ng/ml and 500 ng/mL. The concentration of BMP7 was 3.3 nM. RNA was isolated and UCP1 and PPARγ expression levels were evaluated by quantitative reverse transcription polymerase chain reaction (Q-RT-PCR) analysis after 24 hours (i.e., 1 day) (FIG. 14A), 2 days (FIG. 14B), 5 days (FIG. 14C) and 7 days (FIG. 14D) of treatment. All experiments were performed triplicate and the data are presented as mean+/−SEM.
# FGF2, FGF6 and FGF9 were used at a dosage of 200 ng/mL. FGF21 was used at a dosage of 500 ng/mL. The concentration of BMP7 was 3.3 nM. mRNA was isolated and UCP1 and PPARγ expression levels were evaluated by quantitative reverse transcription polymerase chain reaction (Q-RT-PCR) analysis after 24 hours (i.e., 1 day), 2 days, 5 days and 7 days of treatment (FIG. 15). […]
# [3] = test system: UCP1; assay: UCP1 mRNA expression in SVF cells from interscapular brown adipose tissue (BAT-SVF); assay type: cell-based, C57BL/6 mice; conditions: growth media, 3 days; vs control
# Experimental: Eight 6-week old C57BL/6 male mice were sacrificed. Interscapular BAT and axillary subcutaneous WAT were removed, minced and digested with 1 mg/ml collagenase for 45 minutes at 37° C. in DMEM/F12 media, containing 1% BSA and antibiotics. Digested tissues were filtered through sterile 150 μm nylon mesh and centrifuged at 250×g for 5 minutes. The floating fractions consisting of adipocytes were discarded and the pellets representing the SVF were then resuspended in erythrocyte lysis buffer (154 mM NH4Cl, 10 mM KHCO3, 0.1 mM EDTA) for 10 minutes to remove red blood cells. The cells were further centrifuged at 500×g for 5 minutes, plated at 8×10^5 cells/well of a 24-well plate and grown at 37° C. in DMEM/F12 supplemented with 10% FBS at 37° C.
# To determine if FGF6 treatment of primary adipose progenitors could also increase UCP1 expression as observed in Example 1, stromo-vascular fraction (SVF) cells, which comprise adipocyte progenitors, were isolated from interscapular brown adipose tissue (BAT-SVF) and subcutaneous white adipose tissue (SQ-SVF). SVF cells were subsequently treated with FGF6 or FGF21 in growth media (DMEM+10% FBS) for 3 days, followed by determination of UCP1 expression. As described in FIGS. 9A and 9B, FGF21 treatment had little effect on UCP1 mRNA expression in either type of SVF cells, as compared to the control. […]
# [4] = 0 to 300 ng/ml, absence of induction cocktail, day 7
molecule,measurement,setting,value
B1,PTGS2 levels in cells differentiated using BMP7,[1],increased
same,UCP1 expression in cells differentiated using BMP7,[1],induced UCP1 expression
same,FGF6 concentration at which UCP1 gene expression plateaued,[2]; [4],about 200 ng/ml
same,"UCP1 gene expression, dose response",[2]; [4],dose-dependent manner
same,earliest time of significant increase of UCP1 expression,[2]; 200 ng/ml,4 h
same,fold-induction of UCP1 mRNA over untreated cells,"[2]; 200 ng/ml, 24 hours",700 fold
same,UCP1 levels with prolonged exposure,"[2]; 200 ng/ml, time course",continued to rise
same,UCP1 expression level,"[2]; 50-300 ng/mL with insulin and T3, 1, 2, 5 and 7 days, dose-responsive",very high levels of UCP1
same,"UCP1 expression level, time course","[2]; FGF2, FGF6, FGF9 200 ng/mL, FGF21 500 ng/mL, with insulin and T3, 1, 2, 5, 7 days",very high levels of UCP1
same,UCP1 mRNA expression,"[2]; WT-1, 24 hours, vs vehicle",significantly induced
same,UCP1 mRNA expression,"[2]; WT-1, growth media, seven days, vs control or induction media",significantly increased; also recorded: extremely high levels
same,UCP1 expression over basal level,[2]; constitutive overexpression of FGF6 in WT-1,greatly increased; also recorded: marked increases
same,increase of UCP1 mRNA expression in BAT-SVF,[3],4 fold
